From patent publication US20260274913A1 (Amgen, published 2026)

T1: cyno TREM-1-His protein (cynomolgus monkey, UniProt A0A2K5VHG8 21-204)
T1 construct: extracellular domain; Soluble analyte of the Octet assay; not shown: His tag
T1 sequence: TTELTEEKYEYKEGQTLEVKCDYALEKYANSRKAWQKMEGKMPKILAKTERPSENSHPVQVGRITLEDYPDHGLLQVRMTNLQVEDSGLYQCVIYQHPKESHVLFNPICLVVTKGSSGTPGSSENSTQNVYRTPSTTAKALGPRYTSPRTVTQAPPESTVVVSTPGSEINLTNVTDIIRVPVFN

T2: cyno TREM-1 (cynomolgus monkey, UniProt A0A2K5VHG8 21-233)
T2 sequence: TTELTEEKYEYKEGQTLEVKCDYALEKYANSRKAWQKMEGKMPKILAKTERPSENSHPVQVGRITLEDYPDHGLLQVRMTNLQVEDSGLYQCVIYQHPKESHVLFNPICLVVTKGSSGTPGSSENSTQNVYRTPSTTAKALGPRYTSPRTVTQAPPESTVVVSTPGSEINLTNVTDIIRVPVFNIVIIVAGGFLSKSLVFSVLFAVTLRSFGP


What was measured:
cyno TREM-1-His protein = target: T1, cyno TREM-1-His protein; test: BLI (Octet HTX), antibody captured on anti-human Fc sensor, cyno TREM-1-His as analyte, 1:1 model
Method: Briefly, TREM-1 hybridoma supernatants normalized to 10 μg/mL in DMEM null media were prepared by diluting 1:10 in OCTET® assay buffer (10 mM Tris, 0.1% Triton X-100, 150 mM NaCl, 1 mM CaCl₂), 0.1 mg/mL BSA, at pH 7.6) to a final test concentration of 1 μg/mL. Amine reactive second-generation AR2G Biosensors (Molecular Devices) were pre-incubated in 200 μL nanopore water for a minimum of 10 minutes at room temperature before use. The AR2G Biosensors were then activated for 5 minutes in a solution of 20 mM EDC (1-Ethyl-3-[3-dimethylaminopropyl]carbodiimide hydrochloride) (ForteBio) pre-mixed with 10 mM NHS (N-hydroxysulfosuccinimide) (ForteBio) in nanopore water. An in-house generated mouse anti-human Fc monoclonal antibody was coupled to the AR2G Biosensors at 10 μg/mL in 10 mM sodium acetate buffer at pH 5 for 5 minutes, quenched with 1M ethanolamine at pH 8.5 for 5 minutes, and then used to capture antibody from solution. The TREM-1 test antibodies were loaded onto the Biosensors for 5 minutes, and baseline measurements were taken for 1 minute. […] The association of recombinant human TREM-1 with the antibody-loaded sensor was measured for 5 minutes, followed by dissociation in OCTET® buffer for 10 minutes. Biosensors were then regenerated with 10 mM glycine at pH 1.7, reloaded with the same TREM-1 antibodies on the same sensors for 5 minutes, and the same method was used to measure association and dissociation of cyno TREM-1-His protein. Data was referenced using a 0 nM analyte reference sensor. Kinetic analysis was performed using a 1:1 Langmuir model with mass transfer in Genedata Screener software.

cyno TREM-1 = target: T2, cyno TREM-1; test: cell-based or functional assay

| Binder | Kd (cyno TREM-1-His protein) [nM] | Ab IC50-Cyno PBMC (Trial 1), TNFα release induced by cyno PGLYRP1/PGN (cyno TREM-1) [pM] | Ab IC50-Cyno PBMC (Trial 2), TNFα release induced by cyno PGLYRP1/PGN (cyno TREM-1) [pM] |
| --- | --- | --- | --- |
| 34D1 (antibody, V domains shown) VH: QVQLVQSGAEVKKPGASVKVSCKASGYTFTRYDINWVRQATGQGLEWMGWMNPNSGNSGSVQKFRGRVTMTRNTSIHIAYMELSSLRSEDTAVYYCARGGYTSSWRWYFDLWGRGTLVTVSS VL: DIQMTQSPSSLSASVGDRVNITCQASQDIRKHLNWYQQKPGKAPNLLIYDAANLETGVPSRFSGSGSGTAFTFTISSLQPEDIATYYCQHYANLPITFGQGTRLEIK | 4.97 | – | – |
| 49A2 (antibody, V domains shown, also called 19333) VH: EVQLVESGGGLVQPGGSLRLSCAASGFTFSSNWMSWVRQAPGKGLDWMASMKQDGSEIYYVDSVKGRFTISRDNAKNSLHLQMNSLRAEDTAVYYCVRGGWRFESWGQGALVTVSS VL: EIVMTQSPATLSVSPGERATLSCRASQSVSSNLAWYQQKSGQAPRLLIYGASIRATGIPARVSGSGSGTEFTFTISSLQSEDFAVYYCQQYKNWPLTLGGGTKVEIK | 1.87 | 732 | 266 |
| 30H2 (antibody, V domains shown, also called 19330) VH: EVQVLESGGGLVQPGESLRLSCTASGFTFNAYAMSWVRQAPGKGLEWVSTISGSGSTTYYADSVKGRFTISRDNSKNTLDLQMNSLRAADTAVYYCAKVAGSNFFFDHWGQGTLVTVSS VL: EIVMTQSPATLSVSPGERATLSCRASQSINSNLAWYQQKPGQAPRLLIYGAYTRATGIPDRFSGSGSGTEFTLTISSLQSEDFAVYYCQEFIMWPPWTFGLGTQVEIK | 5.7 | 3770 | – |
| 46H7 (antibody, V domains shown) VH: EVQLLESGGGMVQPGGSLRLSCAVSGFTFSRYAMSWVRQAPGKGLEWVSEMRGSSGSTYYADSVKGRFTISRDNSKNTLYLQMNSLRVEDTAIYYCAKEFSSNSLFDYWGQGTLVTVSS VL: EIVMTQSPATLSVSPGERATLSCRASQSVNSNLAWYQQKPGRAPRLLIYGASTRATGIPARFSGSGSGTEFTLTISSLQSEDFAVYYCQQFYNWPPWTFGQGTKVEIK | – | 95.1 | 9.7 |
| 44A5 (antibody, V domains shown) VH: EVQLLESGGGLVQPGGSLRLSCAASGFTFSTYAMNWVRQAPGKGLEWVSTVSGSGRPTYYADSVKGRFTISRDNSKNTLYLQMNSLRAEDTAVYYCAKAYYSNYLFDYWGQGTLVTVSS VL: EIVMTQSPAILSVSPGERATLSCRASQSVSSNLAWYQQKPGQAPRLLIYGASTRATGVPARFSGGGSGTDFTLTISSLQSEDFAVYYCQHCKTWPPLTFGGGTKVDLK | 2.02 | 57.9 | 9.1 |
| 3E12 (antibody, V domains shown) VH: QVQLVQSGAEVKKPGASVKVSCKASGYTFNGYYIHWVRQAPGQGLEWMGWLNPNSGGANYAQKFQGWVTMTRDTSISTAYMELSRLTSDDTAVYYCARDQRKTTVTPFEYWGQGTLVTVSS VL: SYELTQPPSVSVSPGQTASITCSGDKLGERNVCWYQLKPGQSPILVIYQDNKRPSGIPERFSGSKSGNTAILTISGTQAMDEADYYCQAWDRNVVFGGGTKLTVL | 1.8 | – | – |

Further lines, results first:

| Kd (cyno TREM-1-His protein) [nM] | Ab IC50-Cyno PBMC (Trial 1), TNFα release induced by cyno PGLYRP1/PGN (cyno TREM-1) [pM] | Ab IC50-Cyno PBMC (Trial 2), TNFα release induced by cyno PGLYRP1/PGN (cyno TREM-1) [pM] | Binder |
| --- | --- | --- | --- |
| 6.42 | 2000 | – | 50A12 (antibody, V domains shown) VH: EVQLVESGGGLVQPGGSLRLSCAASGFTFSSYWMSWVRQAPGKGLEWVANIKQDGSEEYYVDSVKGRFTISRDNAKNSLFLQMNSLRAEDTAVYYCARDYGDSFDYWGQGTLVTVSS VL: DIQMTQSPSSVSASVGDRVTITCRASQGIRKWLAWYQQKPGRAPKLLIYAASRLQSGVPSRFSGSGSGTDFTLTISSLRPEDFATYYCLQAHGFPWTFGQGTKVEIK |
| 1.64 | 114 | 23.2 | 66B8 (antibody, V domains shown) VH: QVQLVQSGAEVKKPGASVKVSCKASGYTFTGYYMHWVRQAPGQGLEWMGWFKPNSGVTNYAQKFQGRVTMSRDTSISTAYMELSSLRSDDTAVYYCARAGYSTSWKDWFDPWGQGTLVTVSS VL: DIQMTQFPSSVSASVGDRVTITCRASQGISRWLAWYQQKQGKAPKLLIYMVSSLQSGVPSRFSGSGSGTDFTLTISSLQPEDFATYYCQQSHNFPITFGQGTRLDIK |
| 1.28 | 154 | 28.4 | 57C10 (antibody, V domains shown) VH: QVQLVQSGAEVKKPGASVKVSCKASGYTFTRYDINWVRQATGQGLEWMGWLNPNSGNTGQTQKFRGRVTMTRNTSINTAYMELSSLRSEDTAVYYCARGGYTSAWRWYFDLWGRGTLVTVSS VL: DIQMTQSPSSLSASVGDRVTITCQASQDINNHLNWYQQKPGKAPKLLIYDVSNLETGVPSSFSGSGCGTDFTFTISSLQPEDIATYFCQQYDKLPLTFGGGTKVEIE |
| 0.856 | 22.6 | 16.1 | 63F8 (antibody, V domains shown) VH: QVQLVQSGAEVKKPGASVKVSCKASGYTFTSYDINWVRQATGQGLEWMGRMNPKSGNAGYVQNFRGRVTMTRNTSISTAYMELSSLRSEDTAVYYCARGGRTSIWSFVFDYWGQGTLVTVSS VL: DIQMTQSPSSLSASVGDRVTITCQASQDISKHLNWYQQKPGKAPKLLIYDTSNLETGVPSRFSGSGSGTDFTFTISSLQPEDIATYNCQQYDKLPLTFGGGTKVEIK |
| 1.27 | 46.9 | 17.4 | 61B12 (antibody, V domains shown) VH: QVQLVQSGAEVTKPGASVKVSCKASGYTFTRYDINWVRQATGQGLEWMGWMNPNSGNSGSVQKFRGRVTMTRNTSITTVYMELSSLRSDDTAVYYCARGGISSSWHWAFDIWGQGTMVTVSS VL: DIQMTQSPSSLSASVGDRVTITCQASQDINNHLNWYQQKPGKAPKLLIYGAYTLETGVPSRFSGSGSGTDFTFTISSLQPEDIATYYCQQYDKLPLTFGGGTKVEIK |
| 1.31 | – | 2340 | 61G5 (antibody, V domains shown) VH: QVQLVQSGAEVKKPGASVKVSCKASGYTFTSYDINWVRQATGQGLEWMGWMNPNSGNSGSVKKFRDRVTMTRNTSISTAYMELSSLRSEDTAVYYCVRLIGYSSAWKWSFQHWGQGTLVTVSS VL: DIQMTQSPSSLSASVGDRVTITCQASRDISKYLNWYQQKPGKAPKLQIYDASNLETGVPSRFSGSGSGTDFTFTISSLQPEDIATYYCQHYDNIPITFGQGTRLEIK |
| 0.68 | 6940 | 780 | 64D7 (antibody, V domains shown) VH: QVQLVQSGAEVKKPGASVKVSCKASGYTFTSYDINWVRQATGQGLEWMGWMNPNRGNTGYVKKFQGRVTMTRNTSISTAYMELSSLRSEDTAVYYCARRRAVYRSSWEWYFDLWGRGTLVTVSS VL: DTQMTQSPSSLSASEGDRVTITCQASQDIFNDLNWYQEKPGKAPKLLIYHASNLETGVPSRFSGSGSGTDYTFTISSLQPEDIATYYCQQYGNLPLTFGGGTKVEIK |
| < 0.29 | – | – | 57F5 (antibody, V domains shown) VH: EVQLLESGGGLVQPGGSLRLSCAASGFTFSSYAMTWVRQAPGRGLQWVSTISGSGSNTYYADSVKGRFTISRDNSKNTLYLQMSSLRAEDTAVYYCAKEGGSNRYFHHWGQGTLVTISS VL: DIQMTQSPSSLSASVGDRVTITCRASQSISSNLNWYQQKPGKAPKLLISAASNLQSGVPSRFSGSESGTDFTLTISSLQSEDFATYYCQQSDSLPLTFGGGTKVEIN |
